According to article PMC6030874:

Target: EGFP-MeCP2 R306C (mouse)

With “NCoR1 (from UniProt O75376 1-2440) (natural protein)” the methylation-dependent transcriptional repression of a luciferase reporter (untagged MeCP2 e1 in Mecp2-/y, Mbd2-/- mouse tail fibroblasts), relative to WT MeCP2 was 25 % of WT.
